Results from patent publication US11464853B2, “Amino acid and peptide conjugates and conjugation process” (Auckland UniServices Limited, priority 2016, dated 2022).
Entries after “also recorded” stand apart in the source; their conditions may differ. Where no end group is shown, it is not given here. [ ]: non-standard residue; d: D form.

What was measured:
Assay type in all cases: cell-based
[1] = system: CD8+ T cell clones with TLR2+ HLA-A2+ lymphoblastoid B-cell lines (LCL) as antigen-presenting cells; assay: Peptide processing and presentation to CD8+ T-cell clones by LCL (CD137 expression, flow cytometry); conditions: result in words
Method: Epstein-Barr Virus-transformed TLR2+ HLA-A2+ lymphoblastoid B-cell lines (LCL) were used as antigen-presenting cells in all peptide processing and presentation assays. LCL were incubated for 16 h in RF10+peptide/construct as indicated at desired concentrations. Untreated LCL were incubated in RF10 only. LCL/construct incubation was performed in 96 well plates (U-bottom, BD Biosciences) or in 48wp (flat bottom, BD Biosciences) depending of the nature of the assay and the numbers of LCL required per treatment. Following incubation, LCL were thoroughly washed with RPMI 1640 to remove unbound construct/peptide.
To enable flow cytometric detection, CD8+ T cell clones were pre-stained with 0.5 μM CellTrace™ Violet (“CTV”) (Life Technologies™) following manufacturer's protocols prior to seeding into APC wells. Loaded, washed LCL and CTV-stained T cell clones were seeded in 96 well plate wells (U-bottom) at a ratio of 4:1 (LCL: T cell) in duplicate (typical numbers of cells used were 1.25×10^4 cells/ml T cells and 5×10^4 cells/ml APC). Following seeding, plates were gently centrifuged (≤300×g, 3 minutes) to allow immediate interaction, and incubated for 26 hours in a standard cell culture incubator.
To detect T cell activation, samples were stained with anti-CD8:AlexaFluor700 and anti-CD137:PE antibodies (both Biolegend). […]

[2] = molecular target: T1, human TLR2 (HEK-Blue™-hTLR2 cells) (Homo sapiens, UniProt O60603); assay: TLR2 agonism in HEK-Blue-hTLR2 cells (SEAP reporter); conditions: for SEAP production / TLR2 agonism in HEK-Blue™-hTLR2: Example 2, FIG. 4A-4C, 10-12 h incubation, absorbance 635 nm
T1 construct: host or cells: HEK-Blue-hTLR2 (HEK cells co-transfected with human TLR2 and the SEAP reporter)
T1 sequence (O60603 21-784): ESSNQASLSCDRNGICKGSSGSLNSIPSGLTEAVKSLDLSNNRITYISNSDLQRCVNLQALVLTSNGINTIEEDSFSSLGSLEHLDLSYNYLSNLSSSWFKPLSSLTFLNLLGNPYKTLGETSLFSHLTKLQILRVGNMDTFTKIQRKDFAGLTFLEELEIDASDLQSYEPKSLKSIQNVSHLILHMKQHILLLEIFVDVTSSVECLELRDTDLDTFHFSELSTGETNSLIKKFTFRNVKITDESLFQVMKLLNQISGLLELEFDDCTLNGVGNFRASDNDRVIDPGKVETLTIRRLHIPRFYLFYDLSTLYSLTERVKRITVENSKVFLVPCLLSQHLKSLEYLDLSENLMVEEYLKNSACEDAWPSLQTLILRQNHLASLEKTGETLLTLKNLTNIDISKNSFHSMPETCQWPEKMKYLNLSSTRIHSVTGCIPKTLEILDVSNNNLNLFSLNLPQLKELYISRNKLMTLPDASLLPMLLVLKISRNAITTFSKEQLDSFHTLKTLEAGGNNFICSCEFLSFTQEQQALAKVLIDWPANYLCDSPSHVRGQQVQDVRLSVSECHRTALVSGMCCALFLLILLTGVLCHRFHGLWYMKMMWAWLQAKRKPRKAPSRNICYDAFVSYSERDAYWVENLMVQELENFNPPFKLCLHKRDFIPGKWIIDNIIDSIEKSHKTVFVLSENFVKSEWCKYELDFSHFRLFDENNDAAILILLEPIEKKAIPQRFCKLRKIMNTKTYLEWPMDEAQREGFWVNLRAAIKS
Method: (§1) HEK-Blue™ Detection medium, HEK-Blue™-hTLR2 and HEK-Blue™-mTLR2 were purchased from Invivogen. These HEK-Blue cells were produced by co-transfection of both reporter gene SEAP (secreted embryonic alkaline phosphatase) and either human or murine TLR2, respectively. The SEAP reporter gene is under the control of the IFN-B minimal promoter fused to five AP-1 and five NFkB binding sites. Cells were cultured according to manufacturer's instructions.
(§2) On the day of the assay, TLR agonists 510, 520, 530, 540, 550 or PBS (negative control) were added at the indicated concentrations in 20 μl volume of endotoxin free water in a 96-well plate. HEK-Blue™-hTLR2 or […] were resuspended at ˜2.78×10^5 cells/ml in HEK-Blue™ Detection medium and 180 μl of the cell suspension added to each well (˜5×10^4 cells). Cells were incubated for 10-12 h at 37° C. in 5% CO2. SEAP expression was quantified using an EnSpire plate reader (PerkinElmer) at […]. Data presented as mean+/−SD ABS or mABS (635 nm) values for triplicate wells following background subtraction.
(§3) The TLR2 agonism of the agonists in Table 4 were investigated in HEK-Blue™-mTLR2 (FIG. 6A) and HEK-Blue™-hTLR2 (FIG. 6B) cells by following a procedure analogous to that described in section 2.1 of Example 2 across a 6-log10 dilution series (10^−6 M to 10^−11 M). (R/S)-Pam-1-Cys-NH2 was tested only at 10^−6 and 10^−9 M. Data presented as mean+/−SD absorbance (635 nm) values for triplicate wells following background subtraction, with dotted lines representing absorbance in wells treated with media only.

[3] = molecular target: T2, murine TLR2 (HEK-Blue™-mTLR2 cells) (Mus musculus, UniProt Q9QUN7); assay: TLR2 agonism in HEK-Blue-mTLR2 cells (SEAP reporter); conditions: for SEAP production / TLR2 agonism in HEK-Blue™-mTLR2: Example 2, FIG. 4A-4C, 10-12 h incubation, absorbance 635 nm; for SEAP production / TLR2 agonism in HEK-Blue™-mTLR2 / TLR2 agonism for mTLR2: result in words; for TLR2 agonism for mTLR2: Example 8, FIG. 6A, dilution series 10^−6 M to 10^−11 M
T2 construct: host or cells: HEK-Blue-mTLR2 (HEK cells co-transfected with murine TLR2 and the SEAP reporter)
T2 sequence (Q9QUN7 25-784): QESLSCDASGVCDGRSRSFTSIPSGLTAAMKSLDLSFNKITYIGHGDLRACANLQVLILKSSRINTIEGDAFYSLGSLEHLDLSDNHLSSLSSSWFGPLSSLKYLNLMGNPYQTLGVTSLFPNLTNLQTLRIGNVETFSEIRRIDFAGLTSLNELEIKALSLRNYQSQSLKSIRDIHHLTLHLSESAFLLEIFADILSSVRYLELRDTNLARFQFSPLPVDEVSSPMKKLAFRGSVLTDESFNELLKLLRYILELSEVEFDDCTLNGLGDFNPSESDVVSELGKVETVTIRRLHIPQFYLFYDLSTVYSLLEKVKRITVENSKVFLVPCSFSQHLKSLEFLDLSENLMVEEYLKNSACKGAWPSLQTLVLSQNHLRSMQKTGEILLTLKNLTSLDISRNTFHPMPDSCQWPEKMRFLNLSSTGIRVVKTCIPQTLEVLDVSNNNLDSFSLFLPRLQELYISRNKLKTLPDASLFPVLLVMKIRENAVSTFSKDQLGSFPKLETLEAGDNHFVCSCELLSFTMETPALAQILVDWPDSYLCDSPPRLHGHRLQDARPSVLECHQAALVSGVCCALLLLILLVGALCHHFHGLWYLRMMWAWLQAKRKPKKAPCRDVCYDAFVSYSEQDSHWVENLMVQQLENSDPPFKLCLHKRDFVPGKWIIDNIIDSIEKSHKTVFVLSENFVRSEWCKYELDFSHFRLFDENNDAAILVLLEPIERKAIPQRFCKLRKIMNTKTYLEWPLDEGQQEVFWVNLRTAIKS
Method: as §1, §2, §3

Substance	SEAP production / TLR2 agonism in HEK-Blue™-hTLR2 ([2]; result in words)	SEAP production / TLR2 agonism in HEK-Blue™-mTLR2 [3]	further results
552: Homo-Pam2Cys(NHAc)-SKKKK conjugated to peptide VPGVLLKEFTVSGNILTIRLTAADHR (homo-Pam2Cys(NHAc)-SKKKK conjugate) [compound 552]			T-cell clone activation (live clonal cells positive for CD137) ([1]; VPG-bearing constructs and VPG long peptide, FIG. 4E, epitope EFTVSGNIL): superior T-cell clone activation to VPG-bearing-Pam1Cys-SKKKK (512); also recorded: superior to VPG peptide alone (500)
Pam2Cys-SKKKK: known TLR2 agonist, prepared in-house; lipid/linker component Pam2Cys-SKKKK without peptide ([Pam2Cys]SKKKK) [reference compound]	most potent agonist tested	most potent agonist tested	
Pam1Cys-SKKKK: known TLR2 agonist, prepared in-house; lipid/linker component Pam1Cys-SKKKK without peptide ([Pam1Cys]SKKKK) [reference compound]		not active in HEK-Blue™-mTLR2 at sub-μM concentrations	
homoPam2Cys(NH2)-SKKKK: Lipopeptide TLR2 agonist of the invention: Homo-Pam2Cys(NH2) lipid component with SKKKK linker, no epitope peptide ([homoPam2Cys(NH2)]SKKKK)	comparable production in HEK-Blue™-hTLR2; also recorded: demonstrably more potent TLR2 agonists than Pam1CYs-SKKKK; also recorded: active in both HEK-Blue™-mTLR2 and -hTLR2 to sub-nM concentrations	equivalent SEAP production to Pam3Cys-SKKKK; also recorded: demonstrably more potent TLR2 agonists than Pam1CYs-SKKKK; also recorded: active in both HEK-Blue™-mTLR2 and -hTLR2 to sub-nM concentrations	
551: Homo-Pam2Cys(NHAc)-SKKKK conjugated to peptide NLVPMVATVK(Ac) ({homoPam2Cys(NHAc)}-SKKKKNLVPMVATVK(Ac); also: conjugated to lipopeptide, linkage not given here) [compound 551]	did not result in any loss of agonism, and homoPam2Cys(NHAc)-SKKKK-NLVPMVATVK(Ac) remained a more potent agonist than Pam3Cys-SKKKK, particularly at nM concentrations	did not result in any loss of agonism, and homoPam2Cys(NHAc)-SKKKK-NLVPMVATVK(Ac) remained a more potent agonist than Pam3Cys-SKKKK, particularly at nM concentrations	T-cell clone activation (live clonal cells positive for CD137) ([1]; NLV-bearing constructs, FIG. 4D, LCL loaded 16 h, co-culture 26 h): comparable T-cell clone activation to NLV-bearing-Pam2Cys-SKKKK (521), and superior T-cell clone activation to NLV-bearing-Pam1Cys-SKKKK (511)
521: Pam2Cys-SKKKK conjugated to peptide NLVPMVATVK(Ac) (Pam2Cys-SKKKKNLVPMVATVK(Ac)) [compound 521, reference compound]	relative loss of agonism when compared to unconjugated Pam3Cys-SKKKK	relative loss of agonism when compared to unconjugated Pam3Cys-SKKKK	
(R)-Pam2Cys-SKKKK-NH2: enantiopure epimeric TLR agonist of Table 4 ([(R)‑Pam2Cys]SKKKK-NH2; also: (R) epimer, enantiopure) [reference compound]			TLR2 agonism for mTLR2 [3]: increase in NKκB production at 10^−10 and 10^−11 M only
Pam1Cys-SKKKK-NH2: TLR agonist of Table 4 ([Pam1Cys]SKKKK-NH2) [reference compound]			TLR2 agonism for hTLR2 ([2]; Example 8, FIG. 6B, dilution series 10^−6 M to 10^−11 M, result in words): agonism for hTLR2 at 10^−6 M but not 10^−9 M; TLR2 agonism for mTLR2 [3]: no agonism at any concentration for mTLR2
homoPam2Cys(NHAc)-SKKKK: Lipopeptide TLR2 agonist of the invention: Homo-Pam2Cys(NHAc) lipid component with SKKKK linker, no epitope peptide ([homoPam2Cys(NHAc)]SKKKK)	equivalent SEAP production to the most potent agonist tested (Pam2Cys-SKKKK) at ≥1 nM and comparable production at sub-nM concentrations; also recorded: demonstrably more potent agonist than Pam3Cys-SKKKK or homoPam2Cys(NH2)-SKKKK; also recorded: demonstrably more potent TLR2 agonists than Pam1CYs-SKKKK; also recorded: active in both HEK-Blue™-mTLR2 and -hTLR2 to sub-nM concentrations	equivalent SEAP production to the most potent agonist tested (Pam2Cys-SKKKK) at ≥1 nM and comparable production at sub-nM concentrations; also recorded: demonstrably more potent agonist than Pam3Cys-SKKKK or homoPam2Cys(NH2)-SKKKK; also recorded: demonstrably more potent TLR2 agonists than Pam1CYs-SKKKK; also recorded: active in both HEK-Blue™-mTLR2 and -hTLR2 to sub-nM concentrations	
(R)-Pam3Cys: enantiopure epimeric TLR agonist of Table 4 (CSKKKK) [reference compound]			NFκB production maintained at lower concentration than paired (S)-version ([2]; hTLR2, (R)- vs (S)-epimer): ≥ 10 fold; NFκB production maintained at lower concentration than paired (S)-version ([3]; mTLR2, (R)- vs (S)-epimer): ≥ 10 fold
